What was measured:
[1] = molecular target: trFAN1 crystallization construct (human, UniProt Q9Y2M0 364-1017, R507H;K794A;del510-518); assay: X-ray crystallography; 2.65 Å; MST: 25 mM HEPES pH 7.5, 125 mM KCl, 10 mM CaCl2, 5% glycerol, 1 mM TCEP, 0.005% Tween-20, 0.1% BSA, 10 nM Cy5-DNA, 25 °C; SPR buffer not in the material; settings: protein: recombinant; tags: His tag removed by PreScission; double flap: 1:2 1:3; 5' flap 1 nt (pG), 3' flap T4
FAN1 WT [2] = molecular target: T1, FAN1 WT (human, UniProt Q9Y2M0 1-1017); assay: SPR; no PCNA; MST: 25 mM HEPES pH 7.5, 125 mM KCl, 10 mM CaCl2, 5% glycerol, 1 mM TCEP, 0.005% Tween-20, 0.1% BSA, 10 nM Cy5-DNA, 25 °C; SPR buffer not in the material; settings: protein: recombinant; tags: His tag removed by PreScission; label: 5'-biotin (SPR); blunt; one unpaired nt in strand 2
PCNA WT;FAN1 WT [3] = molecular target: T2, PCNA WT;FAN1 WT (human;human, UniProt P12004;Q9Y2M0 1-261;1-1017, |); assay: SPR; PCNA titrated, 100 nM FAN1; MST: 25 mM HEPES pH 7.5, 125 mM KCl, 10 mM CaCl2, 5% glycerol, 1 mM TCEP, 0.005% Tween-20, 0.1% BSA, 10 nM Cy5-DNA, 25 °C; SPR buffer not in the material; settings: protein: recombinant;recombinant; tags: His tag removed by PreScission;His tag removed by PreScission; chain copies: 3;1; label: 5'-biotin (SPR); blunt; one unpaired nt in strand 2
PCNA WT;FAN1 R507H = PCNA WT;FAN1 R507H (human;human, UniProt P12004;Q9Y2M0 1-261;1-1017, |R507H); assay: as above; settings: protein: recombinant;recombinant; tags: His tag removed by PreScission;His tag removed by PreScission; chain copies: 3;1; label: 5'-biotin (SPR); blunt; one unpaired nt in strand 2
FAN1 WT;PCNA WT = FAN1 WT;PCNA WT (human;human, UniProt Q9Y2M0;P12004 1-1017;1-261, |); assay: SPR; FAN1 titrated, 10 µM PCNA WT; MST: 25 mM HEPES pH 7.5, 125 mM KCl, 10 mM CaCl2, 5% glycerol, 1 mM TCEP, 0.005% Tween-20, 0.1% BSA, 10 nM Cy5-DNA, 25 °C; SPR buffer not in the material; settings: protein: recombinant;recombinant; tags: His tag removed by PreScission;His tag removed by PreScission; copies: 1;3; label: 5'-biotin (SPR); blunt; one unpaired nt in strand 2
PCNA WT;trFAN1 WT = PCNA WT;trFAN1 WT (human;human, UniProt P12004;Q9Y2M0 1-261;371-1017, |); assay: SPR; PCNA titrated, 100 nM trFAN1; MST: 25 mM HEPES pH 7.5, 125 mM KCl, 10 mM CaCl2, 5% glycerol, 1 mM TCEP, 0.005% Tween-20, 0.1% BSA, 10 nM Cy5-DNA, 25 °C; SPR buffer not in the material; settings: protein: recombinant;recombinant; tags: His tag removed by PreScission;His tag removed by PreScission; chain copies: 3;1; label: 5'-biotin (SPR); blunt; one unpaired nt in strand 2
PCNA D232A;trFAN1 R507H = PCNA D232A;trFAN1 R507H (human;human, UniProt P12004;Q9Y2M0 1-261;371-1017, D232A|R507H); assay: as above; settings: protein: recombinant;recombinant; tags: His tag removed by PreScission;His tag removed by PreScission; chain copies: 3;1; label: 5'-biotin (SPR); blunt; one unpaired nt in strand 2
FAN1 WT;PCNA D232A = FAN1 WT;PCNA D232A (human;human, UniProt Q9Y2M0;P12004 1-1017;1-261, |D232A); assay: SPR; FAN1 titrated, 10 µM PCNA D232A; MST: 25 mM HEPES pH 7.5, 125 mM KCl, 10 mM CaCl2, 5% glycerol, 1 mM TCEP, 0.005% Tween-20, 0.1% BSA, 10 nM Cy5-DNA, 25 °C; SPR buffer not in the material; settings: protein: recombinant;recombinant; tags: His tag removed by PreScission;His tag removed by PreScission; copies: 1;3; label: 5'-biotin (SPR); blunt; one unpaired nt in strand 2
PCNA WT;FAN1 WT [4] = molecular target: T2, PCNA WT;FAN1 WT; assay: SPR; 100 nM FAN1; Kd within 4-fold of homoduplex; koff 8.9e-3 s-1, slowest; MST: 25 mM HEPES pH 7.5, 125 mM KCl, 10 mM CaCl2, 5% glycerol, 1 mM TCEP, 0.005% Tween-20, 0.1% BSA, 10 nM Cy5-DNA, 25 °C; SPR buffer not in the material; settings: protein: recombinant;recombinant; tags: His tag removed by PreScission;His tag removed by PreScission; chain copies: 3;1; label: 5'-biotin (SPR); blunt; (CAG)2 loop in strand 1
FAN1 WT [5] = molecular target: T1, FAN1 WT; assay: cryo-EM; 3.20 Å; EMD-19844; PDB id inconsistent in paper (Data availability says 9EO1; Supp. Table 3 and text imply 9EOA); MST: 25 mM HEPES pH 7.5, 125 mM KCl, 10 mM CaCl2, 5% glycerol, 1 mM TCEP, 0.005% Tween-20, 0.1% BSA, 10 nM Cy5-DNA, 25 °C; SPR buffer not in the material; settings: protein: recombinant; tags: His tag removed by PreScission; double flap: 1:2 1:3; 5' flap and 3' poly-T flap

T1 sequence (Q9Y2M0 whole entry): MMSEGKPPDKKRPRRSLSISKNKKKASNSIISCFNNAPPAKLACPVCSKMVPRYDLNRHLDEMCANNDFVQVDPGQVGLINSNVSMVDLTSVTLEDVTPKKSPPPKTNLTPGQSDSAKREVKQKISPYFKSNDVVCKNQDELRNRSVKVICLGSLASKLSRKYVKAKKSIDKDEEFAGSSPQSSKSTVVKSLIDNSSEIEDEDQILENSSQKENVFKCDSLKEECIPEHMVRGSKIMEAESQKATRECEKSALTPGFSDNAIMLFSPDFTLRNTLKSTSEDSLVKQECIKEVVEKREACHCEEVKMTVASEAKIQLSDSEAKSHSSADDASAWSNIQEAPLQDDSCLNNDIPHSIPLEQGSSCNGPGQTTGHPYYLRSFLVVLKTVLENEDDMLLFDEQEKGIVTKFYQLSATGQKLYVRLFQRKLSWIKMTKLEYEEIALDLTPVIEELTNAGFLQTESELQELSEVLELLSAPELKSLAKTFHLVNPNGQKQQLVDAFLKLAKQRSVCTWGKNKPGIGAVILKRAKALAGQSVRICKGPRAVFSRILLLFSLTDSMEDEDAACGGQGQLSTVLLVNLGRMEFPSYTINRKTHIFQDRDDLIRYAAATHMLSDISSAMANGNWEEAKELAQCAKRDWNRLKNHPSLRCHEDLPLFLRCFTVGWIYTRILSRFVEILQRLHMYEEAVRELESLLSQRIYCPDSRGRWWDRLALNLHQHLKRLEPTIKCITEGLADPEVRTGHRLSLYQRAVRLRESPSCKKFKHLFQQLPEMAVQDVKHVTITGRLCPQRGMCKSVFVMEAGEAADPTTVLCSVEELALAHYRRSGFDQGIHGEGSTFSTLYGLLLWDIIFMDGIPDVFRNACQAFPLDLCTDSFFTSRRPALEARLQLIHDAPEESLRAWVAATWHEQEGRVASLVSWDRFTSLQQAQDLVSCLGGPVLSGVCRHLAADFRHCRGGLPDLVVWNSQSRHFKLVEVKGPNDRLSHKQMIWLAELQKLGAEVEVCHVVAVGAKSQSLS
T2 sequence (P12004 whole entry, chain 1 of 2): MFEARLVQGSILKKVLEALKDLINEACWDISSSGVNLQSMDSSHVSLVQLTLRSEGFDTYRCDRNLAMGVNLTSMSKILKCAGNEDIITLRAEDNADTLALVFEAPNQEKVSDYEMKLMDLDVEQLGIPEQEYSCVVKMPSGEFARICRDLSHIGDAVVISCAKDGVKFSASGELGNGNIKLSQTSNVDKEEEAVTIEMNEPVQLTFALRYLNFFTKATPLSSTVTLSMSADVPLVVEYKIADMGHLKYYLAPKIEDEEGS
T2 sequence (Q9Y2M0 whole entry, chain 2 of 2): as the sequence (Q9Y2M0 whole entry) above
Chain of FAN1 WT;PCNA D232A (Q9Y2M0 whole entry, chain 1 of 2): as the sequence (Q9Y2M0 whole entry) above
Chain of FAN1 WT;PCNA D232A (P12004 whole entry D232A, chain 2 of 2): as the sequence (P12004 whole entry, chain 1 of 2) above, with D232A counted along it
Chain of FAN1 WT;PCNA WT (Q9Y2M0 whole entry, chain 1 of 2): as the sequence (Q9Y2M0 whole entry) above
Chain of FAN1 WT;PCNA WT (P12004 whole entry, chain 2 of 2): as the sequence (P12004 whole entry, chain 1 of 2) above
Chain of trFAN1 crystallization construct (Q9Y2M0 other isoform, or with tags, fused parts or gaps R507H;K794A;del510-518): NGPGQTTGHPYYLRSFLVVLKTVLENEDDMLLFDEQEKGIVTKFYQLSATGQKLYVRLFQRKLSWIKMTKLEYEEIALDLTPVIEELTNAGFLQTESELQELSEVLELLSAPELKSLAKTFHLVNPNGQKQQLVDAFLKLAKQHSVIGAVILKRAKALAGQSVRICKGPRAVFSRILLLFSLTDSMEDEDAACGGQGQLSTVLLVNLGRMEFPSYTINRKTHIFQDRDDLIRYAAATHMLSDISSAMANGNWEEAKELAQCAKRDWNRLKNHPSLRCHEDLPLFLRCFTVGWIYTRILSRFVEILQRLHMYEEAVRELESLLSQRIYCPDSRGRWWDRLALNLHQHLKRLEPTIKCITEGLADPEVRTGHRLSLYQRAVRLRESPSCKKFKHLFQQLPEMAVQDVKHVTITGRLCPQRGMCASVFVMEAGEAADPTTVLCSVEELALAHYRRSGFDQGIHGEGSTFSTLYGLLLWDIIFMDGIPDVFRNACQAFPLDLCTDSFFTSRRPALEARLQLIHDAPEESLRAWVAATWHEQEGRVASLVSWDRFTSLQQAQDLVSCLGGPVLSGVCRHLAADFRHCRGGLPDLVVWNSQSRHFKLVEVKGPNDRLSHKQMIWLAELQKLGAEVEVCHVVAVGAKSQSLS
Chain of PCNA WT;trFAN1 WT (P12004 whole entry, chain 1 of 2): as the sequence (P12004 whole entry, chain 1 of 2) above
Chain of PCNA WT;trFAN1 WT (Q9Y2M0 371-1017, chain 2 of 2): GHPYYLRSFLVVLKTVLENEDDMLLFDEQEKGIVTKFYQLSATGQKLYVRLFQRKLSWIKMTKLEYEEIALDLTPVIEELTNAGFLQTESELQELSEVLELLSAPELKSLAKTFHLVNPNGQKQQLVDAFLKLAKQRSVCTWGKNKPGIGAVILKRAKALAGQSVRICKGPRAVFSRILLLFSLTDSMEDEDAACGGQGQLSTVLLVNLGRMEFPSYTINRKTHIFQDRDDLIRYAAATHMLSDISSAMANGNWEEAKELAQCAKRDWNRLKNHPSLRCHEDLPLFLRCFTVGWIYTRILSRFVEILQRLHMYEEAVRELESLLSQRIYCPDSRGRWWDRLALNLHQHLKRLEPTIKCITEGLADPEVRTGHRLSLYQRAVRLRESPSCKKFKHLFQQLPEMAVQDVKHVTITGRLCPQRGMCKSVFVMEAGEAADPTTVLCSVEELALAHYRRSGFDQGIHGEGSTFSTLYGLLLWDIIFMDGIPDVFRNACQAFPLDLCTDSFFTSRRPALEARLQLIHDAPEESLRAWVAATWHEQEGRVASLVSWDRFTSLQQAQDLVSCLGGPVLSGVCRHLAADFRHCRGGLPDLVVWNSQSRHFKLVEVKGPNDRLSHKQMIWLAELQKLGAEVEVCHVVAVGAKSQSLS
Chain of PCNA WT;FAN1 R507H (P12004 whole entry, chain 1 of 2): as the sequence (P12004 whole entry, chain 1 of 2) above
Chain of PCNA WT;FAN1 R507H (Q9Y2M0 whole entry R507H, chain 2 of 2): as the sequence (Q9Y2M0 whole entry) above, with R507H counted along it
Chain of PCNA D232A;trFAN1 R507H (P12004 whole entry D232A, chain 1 of 2): as the sequence (P12004 whole entry, chain 1 of 2) above, with D232A counted along it
Chain of PCNA D232A;trFAN1 R507H (Q9Y2M0 371-1017 R507H, chain 2 of 2): as the sequence (Q9Y2M0 371-1017, chain 2 of 2) above, with R137H counted along it

B1: 5'pG1/3'T4 double flap DNA (crystallography) (dsDNA)
DNA 1: AACACGCCTAGACTCCTCA
DNA 2: TTTGAGGAGTCTTTTT
DNA 3: GAGGCGTG
modifications: 5'-phosphate on strand 3
Q: Does B1 bind [1]?
A: binds

B2: 113 bp homoduplex (dsDNA)
DNA 1: CCGCTTTCTTCCCTTCCTTTGTGCACACGTTCCGAGATATCCTAGCAAGTGATCGTCTATGTAGCTCAAGAGTTCGACTTTCCCCGCTAAGCTCTACATCCGAGGCTCGCCGA
DNA 2: TCGGCGAGCCTCGGATGTAGAGCTTAGCGGGGAAAGTCGAACTCTTGAGCTACATAGTACGATCACTTGCTAGGATATCTCGGAACGTGTGCACAAAGGAAGGGAAGAAAGCGG
Q: What does the source list for B2?
A: Kd (FAN1 WT [2]): 0.007 ± 0.0024 µM; Kd (PCNA WT;FAN1 WT [3]): 1.6 ± 0.9 µM; Kd (PCNA WT;FAN1 R507H): 3 ± 0.8 µM; Kd (FAN1 WT;PCNA WT): 0.0072 ± 0.0024 µM; Kd (PCNA WT;trFAN1 WT): 3.9 ± 1.3 µM; Kd (PCNA D232A;trFAN1 R507H): 14 ± 5.1 µM; Kd (FAN1 WT;PCNA D232A): 0.0054 ± 0.0017 µM

B3: 113 bp (CAG)2 extrahelical extrusion (dsDNA)
DNA 1: CCGCTTTCTTCCCTTCCTTTGTGCACACGTTCCGAGATATCCTAGCAAGTGATCGTCAGCAGCTATGTAGCTCAAGAGTTCGACTTTCCCCGCTAAGCTCTACATCCGAGGCTCGCCGA
DNA 2: TCGGCGAGCCTCGGATGTAGAGCTTAGCGGGGAAAGTCGAACTCTTGAGCTACATAGTACGATCACTTGCTAGGATATCTCGGAACGTGTGCACAAAGGAAGGGAAGAAAGCGG
Q: Does B3 bind (PCNA WT;FAN1 WT [4])?
A: binds

B4: 5' flap DNA (cryo-EM substrate) (dsDNA)
DNA 1: CCCGTCCAGGTCTCGTCCGCGCCACTCGTGTCCAGCGTCG
DNA 2: TGCGGACGAGACCTGGACGGG
DNA 3: CGACGCTGGACACGAGTGGCTTTTTTTT
modifications: 5'-phosphate on strand 2
Q: Does B4 bind (FAN1 WT [5])?
A: binds
